Experimental data: PMC6249252, “COMP and TSP-4 interact specifically with the novel GXKGHR motif only found in fibrillar collagens” (Scientific Reports, 2018)

How the values were obtained:
Experiment in all cases: ELISA; collagen model peptide or collagen XI coated; COMP or TSP-4 at indicated concentrations in TBS-T with 0.25% BSA, 1 h, room temperature; detected with anti-COMP or anti-TSP-4 antibody; four-parameter logistic fit; apparent KD
[1] = target: GVKGHR foldon collagen model peptide (minimal binding site) (not stated | bacteriophage T4)
[2] = target: … foldon collagen model peptide (histidine to proline) (not stated | bacteriophage T4)
[3] = target: … foldon collagen model peptide (valine to proline) (not stated | bacteriophage T4)

cartilage oligomeric matrix protein (COMP), wild type, pentameric, sequence (P49747 21-757): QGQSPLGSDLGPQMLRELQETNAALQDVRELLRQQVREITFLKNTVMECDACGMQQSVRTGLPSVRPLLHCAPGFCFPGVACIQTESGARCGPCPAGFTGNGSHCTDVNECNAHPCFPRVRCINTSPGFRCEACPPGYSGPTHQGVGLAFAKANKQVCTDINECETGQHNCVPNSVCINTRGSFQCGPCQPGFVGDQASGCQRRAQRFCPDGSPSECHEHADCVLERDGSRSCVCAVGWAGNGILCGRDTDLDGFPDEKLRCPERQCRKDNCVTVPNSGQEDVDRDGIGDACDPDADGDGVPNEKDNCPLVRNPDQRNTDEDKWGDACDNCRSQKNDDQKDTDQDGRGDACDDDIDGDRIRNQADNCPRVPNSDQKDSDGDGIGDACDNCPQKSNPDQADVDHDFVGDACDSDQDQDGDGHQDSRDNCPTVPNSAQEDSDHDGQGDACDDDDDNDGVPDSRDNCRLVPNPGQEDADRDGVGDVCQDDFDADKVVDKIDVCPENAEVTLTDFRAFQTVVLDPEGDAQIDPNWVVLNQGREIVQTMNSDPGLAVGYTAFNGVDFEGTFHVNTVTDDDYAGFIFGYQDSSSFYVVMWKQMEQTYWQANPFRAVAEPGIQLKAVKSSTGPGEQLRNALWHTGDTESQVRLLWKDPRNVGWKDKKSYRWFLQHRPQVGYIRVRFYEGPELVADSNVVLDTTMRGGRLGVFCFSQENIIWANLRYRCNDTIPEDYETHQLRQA
thrombospondin-4 (TSP-4), sequence (P35443 27-961): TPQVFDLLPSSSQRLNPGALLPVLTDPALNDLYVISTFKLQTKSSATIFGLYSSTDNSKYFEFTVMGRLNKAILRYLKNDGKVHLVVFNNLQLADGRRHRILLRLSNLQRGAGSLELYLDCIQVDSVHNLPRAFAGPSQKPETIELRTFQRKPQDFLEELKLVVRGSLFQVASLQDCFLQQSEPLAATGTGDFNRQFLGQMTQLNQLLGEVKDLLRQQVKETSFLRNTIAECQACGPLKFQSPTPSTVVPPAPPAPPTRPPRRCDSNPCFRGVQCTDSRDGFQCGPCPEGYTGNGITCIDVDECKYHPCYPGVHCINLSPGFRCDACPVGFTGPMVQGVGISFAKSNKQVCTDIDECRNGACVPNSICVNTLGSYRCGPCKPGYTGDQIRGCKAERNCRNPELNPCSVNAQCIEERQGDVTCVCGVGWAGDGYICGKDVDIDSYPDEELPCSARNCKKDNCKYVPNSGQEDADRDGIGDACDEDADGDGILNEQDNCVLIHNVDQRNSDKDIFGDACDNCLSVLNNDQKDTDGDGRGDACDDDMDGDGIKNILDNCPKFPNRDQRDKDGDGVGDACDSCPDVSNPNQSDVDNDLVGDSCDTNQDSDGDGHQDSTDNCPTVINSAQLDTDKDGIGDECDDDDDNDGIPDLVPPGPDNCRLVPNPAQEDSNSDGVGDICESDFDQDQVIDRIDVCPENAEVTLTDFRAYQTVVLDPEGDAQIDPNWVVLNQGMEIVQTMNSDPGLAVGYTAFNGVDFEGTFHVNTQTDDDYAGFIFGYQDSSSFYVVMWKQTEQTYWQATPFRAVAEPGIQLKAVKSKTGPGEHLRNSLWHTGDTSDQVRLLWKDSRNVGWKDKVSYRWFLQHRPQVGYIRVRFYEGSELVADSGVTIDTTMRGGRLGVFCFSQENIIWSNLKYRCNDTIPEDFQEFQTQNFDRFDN

Row | Substance | Kd [1] | Kd [2] | Kd [3]
1 | thrombospondin-4 (TSP-4) (from UniProt P35443 27-961) (natural protein) | 0.56 nM |  | 
2 | cartilage oligomeric matrix protein (COMP), wild type, pentameric (from UniProt P49747 21-757) (natural protein) | 1.61 nM | 496 nM | 2.26 nM
